± gives the standard error. Variants at the floor of the assay were thinned out.

The chains are these.
B1: glmS ribozyme (parent)
chain: AUAAAAGCGCCAGAACUACAGAAAUGUAGUUGACGAGGAGGAGGUUUAUCGAAUUUUCGGCGGAUGCCUCCAAA

Holding throughout (conditions): with glucosamine-6-phosphate
In series [1] the parent is B1. In words: self-cleavage kobs at 640 uM GlcN6P; higher = faster cleavage; RNA array. An outline of the steps:
(§1)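 Barcoded glmS ribozyme variants on sequenced MiSeq chips were transcribed in situ by E. coli RNA polymerase and tracked through a hybridised Cy3 probe at 37 °C. Glucosamine-6-phosphate (40 μM to 10 mM) in HEPES/KCl/Mg(OAc)2 buffer was flowed in, and tiles were imaged over ~14 h. Signals were normalised to baseline and to non-cleaving reference variants; per-tile medians were fit to one- or two-exponential decays to give kobs. kcat and KM came from weighted Michaelis–Menten fits across concentrations.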

Variants of B1 are the subject of series [2]. Nature of the series: self-cleavage kobs at 2500 uM GlcN6P; higher = faster cleavage; RNA array. A digest of the protocol:
as §1

The variants in series [3] derive from B1. In words: self-cleavage kobs at 10000 uM GlcN6P; higher = faster cleavage; RNA array. An outline of the steps:
as §1

Take AUAAAACAGCCAGAACUACAGAAAUGUAGCUGCCGAGGAGGAGGUUUAUCGAAUUUUCGGCGGAUGCCUCCAAA: the “self-cleavage kobs at 640 uM GlcN6P” value in series [1] was less than 1e-05 s⁻¹. The “self-cleavage kobs at 2500 uM GlcN6P” value in series [2] was less than 1e-05 s⁻¹. Further, in series [3], the “self-cleavage kobs at 10000 uM GlcN6P” value is less than 1e-05 s⁻¹.

For AUAAAAGCGUCAGAACUACAGAAAUGUAGUUGCCGAGGAGGAGGUCUAUCCAAUUUUCGCCGGAUGCCUCCAAA, in series [1], the “self-cleavage kobs at 640 uM GlcN6P” value was less than 1e-05 s⁻¹. Also, the “self-cleavage kobs at 2500 uM GlcN6P” value in series [2] is less than 1e-05 s⁻¹.

Turning to AUAAAAGCGCCACAAUUACAGAAAUGUAGUUGACGGGGAGGAGGUUUAUCGAAUUUUCGGCGGAUGCCCCCAAA, the “self-cleavage kobs at 640 uM GlcN6P” value in series [1] was less than 1e-05 s⁻¹.

Turning to AUAAAAGCGCCACAACUACAGAAAUGUAGUUGACGAGGAGUAGGUUUAUCGAAUUUUCGGCGGAUGCCUCUAAA, the “self-cleavage kobs at 640 uM GlcN6P” value in series [1] is less than 1e-05 s⁻¹.

Turning to AUAAAAGCGCCAGGAUUACAGAAAUGUAGUUGACGAGGAGGAGGAUUAUCUAAUUUUCGGGGGAUGCCUCCAAA, the “self-cleavage kobs at 640 uM GlcN6P” value in series [1] is less than 1e-05 s⁻¹.

Take AUAAAAGCGGCAGAACUACAGAAAUGUAGUUGACGAGGAGGAGGUUUAUCGAAAUUUGGGCCGAUGGCUCCAAA: the “self-cleavage kobs at 640 uM GlcN6P” value in series [1] was found to be 6.44e-05 ± 2.7e-05 s⁻¹. Moreover, in series [2], the “self-cleavage kobs at 2500 uM GlcN6P” value amounted to 6.02e-05 ± 2.4e-05 s⁻¹.

AUAAAAGCGACAGAACUACAGAAAUGUAGUUGACGAGGAGGAGGUCUAUCGAAGUUUCGGCGGAUGCCUCCAAA: the “self-cleavage kobs at 640 uM GlcN6P” value in series [1] was less than 1e-05 s⁻¹.

On to AUAAAAGCGCCCGAACUACAGAAAUGUAAUUGACGAAGAGGAGGUUUAUCGAAUUUUCGGCGGAUGCCUCCAAA, for which the “self-cleavage kobs at 640 uM GlcN6P” value in series [1] was determined as 0.000302 ± 8.2e-05 s⁻¹. In series [2], the “self-cleavage kobs at 2500 uM GlcN6P” value is 0.000142 ± 5.2e-05 s⁻¹.

Take AUAAACGCGCCAGAACUACAGAAAUGUAGUUGACUAGGAGGAGGUUUAUCGAAUUUUCGGCGGAUGCCUCAAAA: the “self-cleavage kobs at 640 uM GlcN6P” value in series [1] was less than 1e-05 s⁻¹. Also, the “self-cleavage kobs at 2500 uM GlcN6P” value in series [2] is less than 1e-05 s⁻¹.

Regarding AUAAAAGCGCCAGAACUACAGAAAUGUAGUUGAUGAGGAGGAGGUUUAUCCAAAUUUCGGCGGAUGCCUCCAAA, the “self-cleavage kobs at 640 uM GlcN6P” value in series [1] is less than 1e-05 s⁻¹. In addition, the “self-cleavage kobs at 2500 uM GlcN6P” value in series [2] was less than 1e-05 s⁻¹.

Consider AUAAAAGCGACAGAACUACAGAAAUGUAGUUGACGAGGAGGAGGUUAAUCGAAUUUUCGGCGGAUGCCUGCAAA, for which, in series [1], the “self-cleavage kobs at 640 uM GlcN6P” value was determined as 0.000288 ± 0.00012 s⁻¹.

Take AUAAAAGCGCCAGAACUACAGAAAUGUACUUGACGAGGAGGAGGUUUAUCGAAUUCUCGGCGGAUGCCUCCAAA: the “self-cleavage kobs at 640 uM GlcN6P” value in series [1] is 0.000147 ± 3.2e-05 s⁻¹. Besides, the “self-cleavage kobs at 2500 uM GlcN6P” value in series [2] stood at 0.000116 ± 2.1e-05 s⁻¹. Besides, the “self-cleavage kobs at 10000 uM GlcN6P” value in series [3] amounted to 0.00068 ± 0.00019 s⁻¹.

Take AUAAAAGCGCCAGAACUACAGAAAUGUAGUUGACGAGGUGGAGUUUCAUCUAAUUUUCGGCGGAUGCCUCCAAA: the “self-cleavage kobs at 640 uM GlcN6P” value in series [1] was less than 1e-05 s⁻¹.

Turning to AUAAAAGCGCCAGAACUACAGAAAUGUAGUUGACGAGGAGGAGGUUUAUCGAAUUUUCGGCGGAUGCCCGCAAA, in series [1], the “self-cleavage kobs at 640 uM GlcN6P” value turned out to be 4.82e-05 ± 1.6e-05 s⁻¹.

For the variant AUAAAAGCGCCAGAACUACAGAAAUGUAGUUGAUGAGGAGGAGGUUUAUCGAAUUUUCGGCGGAUGCCUACAAA, in series [1], the “self-cleavage kobs at 640 uM GlcN6P” value was determined as 0.00139 ± 0.00062 s⁻¹.

Regarding AUAAAAGCGCCAGCACUACAGAAAUGUAGUUGCCGAGGAGGAGCUUUAUCGAAUUUUCUGCGGAUGCCUCCAAA, the “self-cleavage kobs at 640 uM GlcN6P” value in series [1] was less than 1e-05 s⁻¹. Further, the “self-cleavage kobs at 2500 uM GlcN6P” value in series [2] is less than 1e-05 s⁻¹.

AUAAAAGCGCCAGAACUACAGAAAUGUAGUUGACGAGGAGGUGGUUUAUCGAAUUUUCGGCGGAUGACGCUAAA: the “self-cleavage kobs at 640 uM GlcN6P” value in series [1] worked out at 4.51e-05 ± 2e-05 s⁻¹. Besides, the “self-cleavage kobs at 2500 uM GlcN6P” value in series [2] is 7.23e-05 ± 1.9e-05 s⁻¹.

With AUAAAAGCGCCAGAACUACAGAAAUGUACUUGACGAGGAGGAGGUUUAUCAAAUUUUCGGCGGAUGGGGCCAAA, the “self-cleavage kobs at 640 uM GlcN6P” value in series [1] came to 5.75e-05 ± 2.7e-05 s⁻¹.

Regarding AUAAAAGCGCCAGAACUACAGAAAUGUAGUUGACGAUGAGGAGGUUUAUCGAAUUUUCGGCUGAUGCCUCCAAA, the “self-cleavage kobs at 640 uM GlcN6P” value in series [1] is less than 1e-05 s⁻¹.

For AUAAAAGCGCCAGAACUACAGAAAUGUAGUUGACGAGGAGGAGGUUUCGCGAAUUUUCGGCGGAUGCCUCCAAA, in series [1], the “self-cleavage kobs at 640 uM GlcN6P” value was less than 1e-05 s⁻¹. The “self-cleavage kobs at 10000 uM GlcN6P” value in series [3] was less than 1e-05 s⁻¹.

With AUAAAAGCGCCAGAACUACAGAAAUGUAGUUGACGAGGAGGAGGUUUAAGGAAUUUUCGGCGGAUGCCUCCAAA, in series [1], the “self-cleavage kobs at 640 uM GlcN6P” value is less than 1e-05 s⁻¹.

With AUAAAAGCCCCAGAACUACAGAAAUGUAGUUGACGAGGACGAGGUUUAGCGAAUUUUCGGCGGAUGCCUCCAAA, the “self-cleavage kobs at 640 uM GlcN6P” value in series [1] was less than 1e-05 s⁻¹. Besides, in series [3], the “self-cleavage kobs at 10000 uM GlcN6P” value is less than 1e-05 s⁻¹.

AUAAAAGCGACAGAACUACAGAAAUGUAGUUGACGAGGAGGAGGUUUAUCGAAUUAUCGGCGGAUGCCUUCAAA: in series [1], the “self-cleavage kobs at 640 uM GlcN6P” value turned out to be 6.36e-05 ± 2.6e-05 s⁻¹. The “self-cleavage kobs at 2500 uM GlcN6P” value in series [2] was 0.000147 ± 6.5e-05 s⁻¹.

The values above are taken from the supplement of paper PMC7125110.
